# From the supplement of paper PMC9112550, “Optimization of the antimicrobial peptide Bac7 by deep mutational scanning” (BMC Biology, 2022)
# Test system: Escherichia coli TOP10
# Assay: shrunken log2 fold change of peptide-encoding DNA abundance (4.5 h post-induction vs induction); higher = less antimicrobial activity (less host growth inhibition)
# Settings: time post-induction: 4.5 h; library: site-saturation at positions 5, 18, 19, 20
# 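Further: peptides expressed intracellularly from a pBAD plasmid library in pooled LB shake-flask culture, induced with 0.3% L-arabinose, DNA abundance read by NGS, three biological replicates, DESeq2 with apeglm shrinkage.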
row,Sequence,shrunken log2 fold change
1,RRIRIRPPRLPRPRPRPHFYPRP,-0.407
2,RRIRNRPPRLPRPRPRPSVKPRP,-0.195
3,RRIRERPPRLPRPRPRPNPDPRP,-0.2
4,RRIRNRPPRLPRPRPRPNWVPRP,0.0876
5,RRIRIRPPRLPRPRPRPLDCPRP,-0.267
6,RRIRKRPPRLPRPRPRPPKAPRP,0.609
7,RRIRKRPPRLPRPRPRPETQPRP,-0.119
8,RRIRVRPPRLPRPRPRPNCFPRP,-0.158
9,RRIRERPPRLPRPRPRPVPKPRP,0.358
10,RRIRKRPPRLPRPRPRPFYRPRP,0.0824
11,RRIRVRPPRLPRPRPRPSLGPRP,0.0433
12,RRIRQRPPRLPRPRPRPLKMPRP,-0.269
13,RRIRHRPPRLPRPRPRPFGDPRP,-0.257
14,RRIRDRPPRLPRPRPRPTEQPRP,-0.0141
15,RRIRGRPPRLPRPRPRPEMFPRP,0.0463
16,RRIRIRPPRLPRPRPRPIRSPRP,-0.273
17,RRIRGRPPRLPRPRPRPGFKPRP,0.354
18,RRIRCRPPRLPRPRPRPQRHPRP,-0.173
19,RRIRQRPPRLPRPRPRPHHIPRP,-0.764
20,RRIRVRPPRLPRPRPRPMFFPRP,-0.333
21,RRIRYRPPRLPRPRPRPRRCPRP,0.254
22,RRIRRRPPRLPRPRPRPWNNPRP,-0.173
23,RRIRCRPPRLPRPRPRPTMWPRP,0.259
24,RRIRSRPPRLPRPRPRPSRVPRP,0.107
25,RRIRSRPPRLPRPRPRPQIYPRP,-0.354

row,Sequence,shrunken log2 fold change
1,RRIRQRPPRLPRPRPRPLMEPRP,-0.17
2,RRIRHRPPRLPRPRPRPLGGPRP,-0.0164
3,RRIRLRPPRLPRPRPRPPWHPRP,0.193
4,RRIRIRPPRLPRPRPRPDIDPRP,-0.151
5,RRIRSRPPRLPRPRPRPDSSPRP,-0.418
6,RRIRDRPPRLPRPRPRPLCDPRP,0.287
7,RRIRCRPPRLPRPRPRPVQAPRP,0.224
8,RRIRFRPPRLPRPRPRPTHEPRP,0.171
9,RRIRGRPPRLPRPRPRPYYPPRP,-0.791
10,RRIRIRPPRLPRPRPRPPWLPRP,0.412
11,RRIRKRPPRLPRPRPRPRQEPRP,0.461
12,RRIRRRPPRLPRPRPRPEHGPRP,0.0177
13,RRIRLRPPRLPRPRPRPHAWPRP,0.62
14,RRIRHRPPRLPRPRPRPCAHPRP,0.0671
15,RRIRVRPPRLPRPRPRPAVWPRP,0.458
16,RRIRYRPPRLPRPRPRPKFCPRP,-0.291
17,RRIRCRPPRLPRPRPRPCEDPRP,-0.219
18,RRIRKRPPRLPRPRPRPGGPPRP,0.453
19,RRIRERPPRLPRPRPRPHPVPRP,-0.277
20,RRIRCRPPRLPRPRPRPGAKPRP,0.309
21,RRIRTRPPRLPRPRPRPVTEPRP,0.0394
22,RRIRMRPPRLPRPRPRPHWNPRP,-0.271
23,RRIRNRPPRLPRPRPRPQPPPRP,0.833
24,RRIRIRPPRLPRPRPRPRMLPRP,-0.177
25,RRIRVRPPRLPRPRPRPHDNPRP,-0.445

row,Sequence,shrunken log2 fold change
1,RRIRGRPPRLPRPRPRPCMWPRP,0.29
2,RRIRFRPPRLPRPRPRPISSPRP,-0.0616
3,RRIRDRPPRLPRPRPRPHGTPRP,0.0175
4,RRIRIRPPRLPRPRPRPCYDPRP,-0.014
5,RRIRNRPPRLPRPRPRPGVCPRP,0.241
6,RRIRLRPPRLPRPRPRPISSPRP,0.106
7,RRIRGRPPRLPRPRPRPHTHPRP,0.0537
8,RRIRTRPPRLPRPRPRPKHKPRP,-0.185
9,RRIRKRPPRLPRPRPRPSQPPRP,0.0235
10,RRIRLRPPRLPRPRPRPHLAPRP,0.053
11,RRIRNRPPRLPRPRPRPFMAPRP,-0.513
12,RRIRERPPRLPRPRPRPIAYPRP,-0.0148
13,RRIRQRPPRLPRPRPRPISHPRP,-0.421
14,RRIRERPPRLPRPRPRPAPPPRP,0.422
15,RRIRLRPPRLPRPRPRPSRVPRP,0.00872
16,RRIRDRPPRLPRPRPRPEGQPRP,1.15
17,RRIRNRPPRLPRPRPRPFRVPRP,-0.17
18,RRIRTRPPRLPRPRPRPHKKPRP,0.0809
19,RRIRGRPPRLPRPRPRPGYHPRP,0.0713
20,RRIRYRPPRLPRPRPRPGRPPRP,0.0326
21,RRIRRRPPRLPRPRPRPMRDPRP,0.62
22,RRIRGRPPRLPRPRPRPGASPRP,0.934
23,RRIRFRPPRLPRPRPRPMCWPRP,-0.189
24,RRIRKRPPRLPRPRPRPVYWPRP,-0.0795
25,RRIRERPPRLPRPRPRPHYAPRP,-0.383

row,Sequence,shrunken log2 fold change
1,RRIRVRPPRLPRPRPRPMCNPRP,-0.263
2,RRIRVRPPRLPRPRPRPLQHPRP,-0.177
3,RRIRIRPPRLPRPRPRPESKPRP,-0.208
4,RRIRYRPPRLPRPRPRPAQGPRP,-0.0469
5,RRIRTRPPRLPRPRPRPMKTPRP,0.0208
6,RRIRTRPPRLPRPRPRPALGPRP,0.898
7,RRIRLRPPRLPRPRPRPHPCPRP,-0.0967
8,RRIRPRPPRLPRPRPRPGPRPRP,0.677
9,RRIRFRPPRLPRPRPRPSYLPRP,-0.736
10,RRIRTRPPRLPRPRPRPRKGPRP,0.333
11,RRIRPRPPRLPRPRPRPRAYPRP,-0.13
12,RRIRIRPPRLPRPRPRPVTWPRP,-0.372
13,RRIRGRPPRLPRPRPRPSWEPRP,0.0693
14,RRIRGRPPRLPRPRPRPYGKPRP,-0.124
15,RRIRERPPRLPRPRPRPNWQPRP,0.103
16,RRIRNRPPRLPRPRPRPPWAPRP,0.38
17,RRIRIRPPRLPRPRPRPLGTPRP,-0.356
18,RRIRNRPPRLPRPRPRPGPLPRP,0.0198
19,RRIRTRPPRLPRPRPRPNFDPRP,0.232
20,RRIRERPPRLPRPRPRPYEMPRP,-1.05
21,RRIRNRPPRLPRPRPRPVYQPRP,-0.00185
22,RRIRFRPPRLPRPRPRPGPVPRP,0.266
23,RRIRFRPPRLPRPRPRPSAEPRP,0.0747
24,RRIRGRPPRLPRPRPRPRLPPRP,0.851
25,RRIRQRPPRLPRPRPRPQMDPRP,-0.0516

row,Sequence,shrunken log2 fold change
1,RRIRTRPPRLPRPRPRPPNCPRP,0.0905
2,RRIRCRPPRLPRPRPRPWHAPRP,-0.271
3,RRIRMRPPRLPRPRPRPRCHPRP,0.133
4,RRIRTRPPRLPRPRPRPGMRPRP,0.744
5,RRIRVRPPRLPRPRPRPKVNPRP,-0.288
6,RRIRKRPPRLPRPRPRPYIWPRP,-0.126
7,RRIRLRPPRLPRPRPRPWWTPRP,-0.312
8,RRIRNRPPRLPRPRPRPAQDPRP,0.288
9,RRIRIRPPRLPRPRPRPMIHPRP,-0.363
10,RRIRYRPPRLPRPRPRPMGHPRP,-1.16
11,RRIRARPPRLPRPRPRPGTIPRP,-0.0682
12,RRIRDRPPRLPRPRPRPTWGPRP,0.282
13,RRIRKRPPRLPRPRPRPWGRPRP,0.179
14,RRIRSRPPRLPRPRPRPDCLPRP,-0.11
15,RRIRPRPPRLPRPRPRPHHFPRP,-0.0294
16,RRIRPRPPRLPRPRPRPVTNPRP,-0.299
17,RRIRARPPRLPRPRPRPAPPPRP,1.27
18,RRIRWRPPRLPRPRPRPCCVPRP,-0.134
19,RRIRDRPPRLPRPRPRPENPPRP,0.783
20,RRIRLRPPRLPRPRPRPNAHPRP,-0.154
21,RRIRERPPRLPRPRPRPYVTPRP,-0.447
22,RRIRYRPPRLPRPRPRPSYLPRP,-1.08
23,RRIRGRPPRLPRPRPRPIPRPRP,0.519
24,RRIRTRPPRLPRPRPRPVNGPRP,0.0311
25,RRIRDRPPRLPRPRPRPDWAPRP,0.534
